For assay [1], the target named is full-length human MET (FL-MET) on cells (human) (UniProt P08581). Description: FACS competition, biotin-HGF on MET-transfected HEK-293T cells; antibody at 10 µg/ml.
For assay [2], the target named is T1, human MET (soluble analyte in Biacore) (human, UniProt P08581 25-932). Put plainly: SPR (Biacore 2000), antibody captured by anti-human antibody, human MET injected. How it is done: (§1) The KD of monovalent version of 73R009, monovalent anti-MET antibody 5D5, and anti-MET/FZD8-Fc bispecific agent 315B6 were determined using a Biacore 2000 system from Biacore LifeSciences (GE Healthcare). A goat anti-human antibody (Invitrogen H10500) was coupled to a carboxymethyl-dextran (CM5) SPR chip using standard amine-based chemistry (NHS/EDC) and blocked with ethanolamine. Antibodies were diluted to a concentration of 10 μg/ml in HBS-P-BSA (0.01M HEPES pH7.4, 0.15M NaCl, 0.005% v/v Polysorbate 20, 10 μg/ml BSA) and captured onto the chip via the anti-human antibody. Human MET was serially diluted 2-fold from 300 nM to 37.5 nM in HBS-P-BSA and injected sequentially over the captured anti-MET antibodies. MET association and dissociation was measured at each concentration. After each antigen injection 5 μl of 100 mM H₃PO₄ was injected to remove the antigen-antibody complex and a subsequent injection performed. Kinetic data were collected over time and were fit using the simultaneous global fit equation to yield affinity constants (KD values) for each agent.
(§2) In addition, the bispecific agent 315B6 appeared to have stronger affinity for human MET than anti-MET antibody 5D5.

The target in assay [3] is full-length human MET (FL-MET) on cells (human) (UniProt P08581). Description: FACS competition, biotin-HGF on MET-transfected HEK-293T cells; antibody at 0.16 µg/ml.
For assay [4] the target is unchanged. Put plainly: FACS blocking assay: MET-transfected HEK-293T cells pre-incubated with the agent, then biotin-HGF (blocked ligand) + PE-streptavidin; % cells in gate P2.
The target is the same in assay [5]. Description: FACS blocking assay: MET-transfected HEK-293T cells pre-incubated with the agent, then biotin-HGF (blocked ligand) + PE-streptavidin; inhibition versus the average of the two positive controls.
The target in assay [6] is T1, human MET (soluble analyte in Biacore). Put plainly: SPR (Biacore 2000), agent captured by anti-human antibody, human MET injected. How it is done: as §1, §2
Assay [7] deals with full-length human MET (FL-MET) on cells (human) (UniProt P08581). Put plainly: FACS blocking assay: MET-transfected HEK-293T cells pre-incubated with the agent, then biotin-HGF (blocked ligand) + PE-streptavidin; % cells in gate P2. The source holds these as a separate data set.
Assay [8] has the same target. Description: FACS blocking assay: MET-transfected HEK-293T cells pre-incubated with the agent, then biotin-HGF (blocked ligand) + PE-streptavidin; inhibition versus the average of the two positive controls. This is another data set of the same source.

Read-outs that look alike come from different tables or passages of the source.

T1 sequence (P08581 25-932 limits assumed): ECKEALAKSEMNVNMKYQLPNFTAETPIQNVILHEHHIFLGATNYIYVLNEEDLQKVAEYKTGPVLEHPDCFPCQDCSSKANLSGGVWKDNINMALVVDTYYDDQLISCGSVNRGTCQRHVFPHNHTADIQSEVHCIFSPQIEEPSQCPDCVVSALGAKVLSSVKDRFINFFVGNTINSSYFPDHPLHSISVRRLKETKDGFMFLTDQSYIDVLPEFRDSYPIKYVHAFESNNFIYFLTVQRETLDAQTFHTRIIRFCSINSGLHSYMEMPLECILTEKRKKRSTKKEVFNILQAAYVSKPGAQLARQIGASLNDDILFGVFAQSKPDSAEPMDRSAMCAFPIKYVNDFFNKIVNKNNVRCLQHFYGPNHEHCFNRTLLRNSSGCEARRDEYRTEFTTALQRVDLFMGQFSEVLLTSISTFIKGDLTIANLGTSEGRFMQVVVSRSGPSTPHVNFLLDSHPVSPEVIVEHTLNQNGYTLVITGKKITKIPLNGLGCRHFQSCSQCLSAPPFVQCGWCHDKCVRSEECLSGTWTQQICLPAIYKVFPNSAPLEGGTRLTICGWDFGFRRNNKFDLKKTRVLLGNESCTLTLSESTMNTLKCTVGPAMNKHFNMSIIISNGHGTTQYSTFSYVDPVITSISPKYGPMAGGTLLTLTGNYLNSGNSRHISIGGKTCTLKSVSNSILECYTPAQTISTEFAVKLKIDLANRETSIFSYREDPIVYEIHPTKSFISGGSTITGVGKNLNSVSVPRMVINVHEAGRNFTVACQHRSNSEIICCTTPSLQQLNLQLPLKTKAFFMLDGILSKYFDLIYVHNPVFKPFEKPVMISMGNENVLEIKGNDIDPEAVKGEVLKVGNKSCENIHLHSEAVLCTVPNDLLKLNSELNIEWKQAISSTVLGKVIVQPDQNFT
full-length human MET (FL-MET) on cells (human), sequence (P08581 25-1390 limits assumed): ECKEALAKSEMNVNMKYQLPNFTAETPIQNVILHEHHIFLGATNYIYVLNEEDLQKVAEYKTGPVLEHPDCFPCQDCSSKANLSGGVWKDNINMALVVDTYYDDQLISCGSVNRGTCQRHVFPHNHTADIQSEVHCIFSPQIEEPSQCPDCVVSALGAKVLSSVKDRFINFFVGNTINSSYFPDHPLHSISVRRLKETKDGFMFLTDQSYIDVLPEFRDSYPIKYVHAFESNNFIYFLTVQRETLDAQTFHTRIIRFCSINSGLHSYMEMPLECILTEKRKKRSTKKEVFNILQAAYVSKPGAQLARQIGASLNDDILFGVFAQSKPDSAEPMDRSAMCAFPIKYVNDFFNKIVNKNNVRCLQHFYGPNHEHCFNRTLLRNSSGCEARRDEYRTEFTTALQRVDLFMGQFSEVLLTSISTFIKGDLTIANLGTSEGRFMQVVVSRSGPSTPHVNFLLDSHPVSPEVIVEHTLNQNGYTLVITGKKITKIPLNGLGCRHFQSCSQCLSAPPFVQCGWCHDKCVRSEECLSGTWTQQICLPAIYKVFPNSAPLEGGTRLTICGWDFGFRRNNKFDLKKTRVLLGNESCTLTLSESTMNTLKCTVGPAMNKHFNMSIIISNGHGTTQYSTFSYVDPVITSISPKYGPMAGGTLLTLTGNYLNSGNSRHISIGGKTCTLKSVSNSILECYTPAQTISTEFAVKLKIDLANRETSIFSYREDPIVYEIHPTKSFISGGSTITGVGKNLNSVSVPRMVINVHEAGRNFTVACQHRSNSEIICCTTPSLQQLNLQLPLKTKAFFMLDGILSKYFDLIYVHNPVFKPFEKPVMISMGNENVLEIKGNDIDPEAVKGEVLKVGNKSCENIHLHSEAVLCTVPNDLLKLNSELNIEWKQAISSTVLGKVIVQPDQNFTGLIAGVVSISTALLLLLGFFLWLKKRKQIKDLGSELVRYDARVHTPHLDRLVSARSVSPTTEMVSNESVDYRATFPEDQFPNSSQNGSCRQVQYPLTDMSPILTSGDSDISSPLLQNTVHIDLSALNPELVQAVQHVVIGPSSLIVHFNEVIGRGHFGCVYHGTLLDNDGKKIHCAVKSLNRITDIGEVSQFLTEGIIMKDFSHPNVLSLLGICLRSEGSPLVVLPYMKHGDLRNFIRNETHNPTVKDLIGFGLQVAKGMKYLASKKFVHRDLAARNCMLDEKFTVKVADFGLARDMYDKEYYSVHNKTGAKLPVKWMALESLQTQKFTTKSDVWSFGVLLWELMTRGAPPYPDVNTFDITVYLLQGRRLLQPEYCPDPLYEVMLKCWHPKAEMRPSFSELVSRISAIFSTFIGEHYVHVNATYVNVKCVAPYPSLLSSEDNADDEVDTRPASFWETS

Take monovalent anti-MET antibody 5D5: the percent reduction of HGF binding to MET in assay [1] stood at 70%. In assay [2], this molecule came in with a Kd of 7.2 nM. In addition, in assay [3], the percent reduction of HGF binding to MET was 28%. In addition, in assay [4], the % Binding of HGF at 0.16 ug/ml agent is 14.3%, the % Binding of HGF at 0.3 ug/ml agent was 10.6%, the % Binding of HGF at 0.625 ug/ml agent came out at 12% and the % Binding of HGF at 1.25 ug/ml agent was 8.54%. In assay [4], the % Binding of HGF at 2.5 ug/ml agent was 9.61%, the % Binding of HGF at 5 ug/ml agent stood at 6.67% and the % Binding of HGF at 10 ug/ml agent was determined as 6.31%. Also, in assay [5], the % Inhibition of HGF binding at 0.3 ug/ml agent amounted to 47%, the % Inhibition of HGF binding at 0.625 ug/ml agent amounted to 40%, the % Inhibition of HGF binding at 1.25 ug/ml agent is 57% and the % Inhibition of HGF binding at 2.5 ug/ml agent came out at 52%. Further, the % Inhibition of HGF binding at 5 ug/ml agent in assay [5] came to 67%.

B1: anti-MET/FZD8-Fc bispecific agent 315B6 (bispecific antibody, human IgG2, kappa)
heavy: QVQLQESGPGLVKPSETLSLTCTVTGTTITASYAWSWIRQPPGKGLEWMGYISYSGGTDYNPSLKSRITISRDTFKNQFSLKLSSVTAADTATYYCARKGAYWGQGTLVTVSSASTKGPSVFPLAPCSRSTSESTAALGCLVKDYFPEPVTVSWNSGALTSGVHTFPAVLQSSGLYSLSSVVTVPSSNFGTQTYTCNVDHKPSNTKVDKTVERKCCVECPPCPAPPVAGPSVFLFPPKPKDTLMISRTPEVTCVVVDVSHEDPEVQFNWYVDGVEVHNAKTKPREEQFNSTFRVVSVLTVVHQDWLNGKEYKCKVSNKGLPAPIEKTISKTKGQPREPQVYTLPPSREKMTKNQVSLTCLVKGFYPSDIAVEWESNGQPENNYKTTPPMLKSDGSFFLYSKLTVDKSRWQQGNVFSCSVMHEALHNHYTQKSLSLSPGK
light: DIVLTQSPATLSASPGEKVTLTCSASSSVSSSYLYWYQQKPGQAPKLLIYSTSNLASGVPARFSGSGSGTSYSLTISSLEPEDFATYYCHQWSSYPYTFGGGTKLEIKRTVAAPSVFIFPPSDEQLKSGTASVVCLLNNFYPREAKVQWKVDNALQSGNSQESVTEQDSKDSTYSLSSTLTLSKADYEKHKVYACEVTHQGLSSPVTKSFNRGEC
chain: ASAKELACQEITVPLCKGIGYNYTYMPNQFNHDTQDEAGLEVHQFWPLVEIQCSPDLKFFLCSMYTPICLEDYKKPLPPCRSVCERAKAGCAPLMRQYGFAWPDRMRCDRLPEQGNPDTLCMDYNRTDLTTTKVDKTVERKSCVECPPCPAPPVAGPSVFLFPPKPKDTLMISRTPEVTCVVVDVSHEDPEVQFNWYVDGVEVHNAKTKPREEQFNSTFRVVSVLTVVHQDWLNGKEYKCKVSNKGLPAPIEKTISKTKGQPREPQVYTLPPSREEMTKNQVSLTCLVEGFYPSDIAVEWESNGQPENNYKTTPPMLDSDGSFFLYSELTVDKSRWQQGNVFSCSVMHEALHNHYTQKSLSLSPGK
notes: Heterodimer of a monovalent 73R009 arm (heavy + light) and a FZD8 Fri-Fc fusion arm; plasmids ATCC PTA-13609, PTA-13610, PTA-13611; also called bispecific anti-MET/FZD8-Fc agent
As to B1, the affinity in assay [6], expressed as Kd, was 1.8 nM.

B2: monovalent version of anti-MET antibody 73R009 (antibody, part only; not given: monovalent constant regions and partner arm, V domains shown, not shown: another chain or arm of the molecule; a dimerising Fc or GST)
VH: QVQLQESGPGLVKPSETLSLTCTVTGTTITASYAWSWIRQPPGKGLEWMGYISYSGGTDYNPSLKSRITISRDTFKNQFSLKLSSVTAADTATYYCARKGAYWGQGTLVTVSS
VL: DIVLTQSPATLSASPGEKVTLTCSASSSVSSSYLYWYQQKPGQAPKLLIYSTSNLASGVPARFSGSGSGTSYSLTISSLEPEDFATYYCHQWSSYPYTFGGGTKLEIK
For B2, the percent reduction of HGF binding to MET in assay [1] was 72%. The molecule also yielded a Kd in assay [2] of 1.4 nM. The percent reduction of HGF binding to MET in assay [3] is 56%. In assay [7], the % Binding of HGF at 0.16 ug/ml agent is 8.72%, the % Binding of HGF at 0.3 ug/ml agent turned out to be 9.71%, the % Binding of HGF at 0.625 ug/ml agent worked out at 8.03% and the % Binding of HGF at 1.25 ug/ml agent was found to be 7.7%. In assay [7], the % Binding of HGF at 2.5 ug/ml agent amounted to 7.44%, the % Binding of HGF at 5 ug/ml agent is 7.77% and the % Binding of HGF at 10 ug/ml agent stood at 5.51%. In addition, in assay [8], the % Inhibition of HGF binding at 0.3 ug/ml agent stood at 52%, the % Inhibition of HGF binding at 0.625 ug/ml agent worked out at 60%, the % Inhibition of HGF binding at 1.25 ug/ml agent stood at 62% and the % Inhibition of HGF binding at 2.5 ug/ml agent came to 63%. In assay [8], the % Inhibition of HGF binding at 5 ug/ml agent worked out at 61%.

B3: antibody 73R009 (bivalent "parental" antibody) (antibody, human IgG2, kappa, V domains shown)
VH: B2 VH
VL: DIVLTQSPATLSASPGEKVTLTCSASSSVSSSYLYWYQQKPGQAPKLLIYSTSNLASGVPARFSGSGSGTSYSLTISSLEPEDFATYYCHQWSSYPYTFGGGTKLEIKR
notes: Humanized, bivalent; also called humanized anti-MET monoclonal antibody
Regarding B3, in assay [2], the affinity, expressed as Kd, was 1.1 nM.

(Values after patent US20160137744A1 (ONCOMED PHARMACEUTICALS, published 2016).)
